# Source: US20240116985A1 (published 2024)
# Starred links: 1 amine or outer side, 2 acyl side, 3 side chain; linkers in the order of their positions; H or OH if unused. Positions of bridges follow the written chain, without caps; N, C: chain ends. Non-standard residues stand in square brackets, D forms with d. Primed or numbered codes have the meaning given here. PyrS2″ = (S)-3-amino-1-((pent-4-en-1-yloxy)carbonyl)pyrrolidine-3-carboxylic acid (stapling residue), C=CCCCOC(=O)N1CC[C@@](N[*:1])(C(=O)[*:2])C1; B5(23) = 2-amino-2-(pent-4-en-1-yl)hept-6-enoic acid (2,2-bis(4-pentenyl)glycine), stitching residue, C=CCCCC(CCCC=C)(N[*:1])C(=O)[*:2]; B5(5) = 2,2-bis(4-pentenyl)glycine, 2-amino-2-(pent-4-en-1-yl)hept-6-enoic acid (stitching residue), C=CCCCC(CCCC=C)(N[*:1])C(=O)[*:2]; TfeGA = (S)-2-amino-3-((carboxymethyl)(2,2,2-trifluoroethyl)amino)propanoic acid, O=C([C@H](CN(CC(=O)[*:3])CC(F)(F)F)N[*:1])[*:2]; PyrS2 = (S)-3-amino-1-((pent-4-en-1-yloxy)carbonyl)pyrrolidine-3-carboxylic acid, C=CCCCOC(=O)N1CC[C@@](N[*:1])(C(=O)[*:2])C1; (Ac)GA = (S)-2-amino-3-(N-(carboxymethyl)acetamido)propanoic acid, CC(=O)N(CC(=O)[*:3])C[C@H](N[*:1])C(=O)[*:2]; B5 = 2-amino-2-(pent-4-en-1-yl)hept-6-enoic acid, C=CCCCC(CCCC=C)(N[*:1])C(=O)[*:2]; Phe(2-Me) = Cc1ccccc1C[C@H](N)C(=O)O; Bta = N[C@@H](Cc1csc2ccccc12)C(=O)O; Lys(iPr) = CC(C)NCCCC[C@H](N)C(=O)O; αAllylPro = C=CC[C@@]1(C(=O)O)CCCN1; tBuAla = CC(C)(C)C[C@H](N)C(=O)O; 3Thi = N[C@@H](Cc1ccsc1)C(=O)O; S8 = C=CCCCCCC[C@](C)(N)C(=O)O; PyrS2(4) = not defined here; TfeGA″ = not defined here
# T1: B-cat-Halo (beta-catenin HaloTag fusion expressed in HEK293 cells) (UniProt P35222 1-781)
# T1 sequence (looked up): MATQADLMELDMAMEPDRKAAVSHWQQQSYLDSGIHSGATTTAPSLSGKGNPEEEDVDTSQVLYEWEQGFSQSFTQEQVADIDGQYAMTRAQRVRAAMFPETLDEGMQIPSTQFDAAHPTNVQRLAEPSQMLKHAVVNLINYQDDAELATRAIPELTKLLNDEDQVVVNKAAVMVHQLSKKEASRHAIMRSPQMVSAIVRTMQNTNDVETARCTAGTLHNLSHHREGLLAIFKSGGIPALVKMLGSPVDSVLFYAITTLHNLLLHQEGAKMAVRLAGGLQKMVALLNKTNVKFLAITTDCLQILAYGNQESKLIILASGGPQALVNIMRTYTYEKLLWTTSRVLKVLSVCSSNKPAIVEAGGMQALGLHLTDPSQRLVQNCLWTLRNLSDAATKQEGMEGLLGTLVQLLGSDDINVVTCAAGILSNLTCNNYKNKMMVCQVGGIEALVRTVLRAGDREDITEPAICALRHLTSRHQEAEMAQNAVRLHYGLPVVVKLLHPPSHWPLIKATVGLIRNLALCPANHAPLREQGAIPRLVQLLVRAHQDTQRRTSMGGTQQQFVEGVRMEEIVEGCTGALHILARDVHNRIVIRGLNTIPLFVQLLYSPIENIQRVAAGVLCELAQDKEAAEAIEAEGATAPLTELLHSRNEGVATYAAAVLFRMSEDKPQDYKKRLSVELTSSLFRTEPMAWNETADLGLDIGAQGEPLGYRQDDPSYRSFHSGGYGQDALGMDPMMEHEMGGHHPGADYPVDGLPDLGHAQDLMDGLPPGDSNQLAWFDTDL
# T2: B-cat-Halo (UniProt P35222 1-781)
# T2 sequence (looked up): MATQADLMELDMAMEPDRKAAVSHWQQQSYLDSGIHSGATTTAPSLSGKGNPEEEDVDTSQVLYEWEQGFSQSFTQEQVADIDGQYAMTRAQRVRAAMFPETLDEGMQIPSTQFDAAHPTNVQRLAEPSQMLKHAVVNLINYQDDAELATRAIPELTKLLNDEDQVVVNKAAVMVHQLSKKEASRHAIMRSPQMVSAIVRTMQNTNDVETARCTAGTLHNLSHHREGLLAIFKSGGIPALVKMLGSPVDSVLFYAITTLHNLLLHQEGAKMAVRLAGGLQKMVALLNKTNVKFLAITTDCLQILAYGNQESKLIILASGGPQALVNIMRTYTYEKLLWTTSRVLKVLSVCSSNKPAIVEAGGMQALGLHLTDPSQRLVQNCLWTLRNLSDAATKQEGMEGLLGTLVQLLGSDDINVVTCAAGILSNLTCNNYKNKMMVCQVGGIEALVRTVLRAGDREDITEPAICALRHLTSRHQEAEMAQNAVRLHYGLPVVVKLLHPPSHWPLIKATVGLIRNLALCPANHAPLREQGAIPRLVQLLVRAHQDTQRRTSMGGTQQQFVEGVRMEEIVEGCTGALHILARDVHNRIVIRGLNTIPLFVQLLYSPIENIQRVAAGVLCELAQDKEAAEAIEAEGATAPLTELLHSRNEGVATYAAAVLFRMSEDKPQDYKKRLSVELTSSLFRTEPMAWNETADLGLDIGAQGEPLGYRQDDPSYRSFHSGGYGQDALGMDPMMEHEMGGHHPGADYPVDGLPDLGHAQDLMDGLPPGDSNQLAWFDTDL
# T3: full-length beta-Catenin (Uniprot ID P35222) (Homo sapiens (Human), UniProt P35222 1-781)
# T3 construct: The assay text says 'full-length'; also called bCat; B-Catenin
# T3 sequence: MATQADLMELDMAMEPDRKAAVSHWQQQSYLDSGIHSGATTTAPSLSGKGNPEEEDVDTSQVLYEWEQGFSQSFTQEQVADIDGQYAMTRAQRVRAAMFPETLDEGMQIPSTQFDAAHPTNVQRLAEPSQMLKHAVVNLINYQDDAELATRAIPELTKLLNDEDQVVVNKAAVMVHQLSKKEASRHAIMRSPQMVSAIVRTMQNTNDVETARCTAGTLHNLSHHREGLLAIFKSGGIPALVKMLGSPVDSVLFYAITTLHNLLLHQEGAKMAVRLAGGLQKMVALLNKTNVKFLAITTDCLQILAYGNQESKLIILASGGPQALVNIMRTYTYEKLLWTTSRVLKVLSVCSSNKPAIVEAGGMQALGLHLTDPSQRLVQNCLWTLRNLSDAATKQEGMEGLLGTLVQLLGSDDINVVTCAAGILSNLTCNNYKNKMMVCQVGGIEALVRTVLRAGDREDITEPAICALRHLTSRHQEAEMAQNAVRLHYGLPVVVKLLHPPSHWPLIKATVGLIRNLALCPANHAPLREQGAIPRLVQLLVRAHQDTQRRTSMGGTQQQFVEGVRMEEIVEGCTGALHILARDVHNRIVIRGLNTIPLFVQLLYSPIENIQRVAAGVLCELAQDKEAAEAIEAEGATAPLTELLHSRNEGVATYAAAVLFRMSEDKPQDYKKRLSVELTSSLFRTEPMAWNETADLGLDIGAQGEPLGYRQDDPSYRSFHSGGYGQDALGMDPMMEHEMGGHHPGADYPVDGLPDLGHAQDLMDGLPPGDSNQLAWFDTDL
# Target: T1, B-cat-Halo (beta-catenin HaloTag fusion …)
# Assay: cell-based or functional assay
row,NanoBRET Abs IC50,Binder
1,10 µM,"Ac-[αAllylPro]D[tBuAla][B5]D[TfeGA]AAFL[PyrS2][Phe(2-Me)][Bta]Q-NH2 (staple 1-4, 4-11) [I-1725]"
2,> 20 µM,"Ac-[αAllylPro]D[tBuAla][B5(5)]D[TfeGA]AAFL[PyrS2″][3Thi][Bta]L-NH2 (staple 1-4, 4-11) [I-1747]"
3,23 µM,"Ac-[αAllylPro]D[tBuAla][B5]D[(Ac)GA]AAFL[PyrS2][3Thi][Bta]Q-NH2 (staple 1-4, 4-11) [I-1729]"

# Target: T2, B-cat-Halo
# Assay: cell-based or functional assay
row,Binder,NanoBRET Abs IC50
1,"Ac-[αAllylPro]D[tBuAla][B5(5)]D[TfeGA″][Lys(iPr)]AFT[PyrS2(4)][3Thi][Bta]F-NH2 (staple 1-4, 4-11; not fully specified; reading uncertain) [I-1762]",> 20 µM
2,"Ac-[αAllylPro]D[tBuAla][B5(5)]D[TfeGA][Lys(iPr)]AFT[PyrS2″][3Thi][Bta]L-NH2 (staple 1-4, 4-11) [I-1760]",> 20 µM
3,"Ac-[αAllylPro]D[tBuAla][B5(5)]D[TfeGA][Lys(iPr)]AFT[PyrS2″][3Thi][Bta]F-NH2 (staple 1-4, 4-11; also: -CH=CH- in each staple reduced to -CH2-CH2-) [I-1768]",> 20 µM
4,"Ac-[αAllylPro]D[tBuAla][B5(5)]D[TfeGA][Lys(iPr)]AFL[PyrS2″][3Thi][Bta]F-NH2 (staple 1-4, 4-11) [I-1761]",> 20 µM
5,"Ac-[αAllylPro]D[tBuAla][B5(5)]D[TfeGA][Lys(iPr)]AFT[PyrS2″][3Thi][Bta]V-NH2 (staple 1-4, 4-11; also: -CH=CH- in each staple reduced to -CH2-CH2-) [I-1770]",> 20 µM
6,"Ac-[αAllylPro]D[tBuAla][B5(5)]D[TfeGA][Lys(iPr)]AFT[PyrS2″][3Thi][Bta]V-NH2 (staple 1-4, 4-11) [I-1764]",> 20 µM
7,"Ac-[αAllylPro]D[tBuAla][B5(5)]D[TfeGA]AAFL[PyrS2″][3Thi][Bta]F-NH2 (staple 1-4, 4-11) [I-1750]",23.7 µM
8,"Ac-[αAllylPro]D[tBuAla][B5(5)]D[TfeGA]AAFL[PyrS2″][3Thi][Bta]L-NH2 (staple 1-4, 4-11) [I-1748]",20.2 µM

# The remaining lines, values ahead:
row,NanoBRET Abs IC50,Binder
1,> 20 µM,"Ac-[αAllylPro]D[tBuAla][B5(5)]D[TfeGA][Lys(iPr)]AFL[PyrS2″][3Thi][Bta]V-NH2 (staple 1-4, 4-11) [I-1763]"
2,> 20 µM,"Ac-[αAllylPro]D[tBuAla][B5(5)]D[TfeGA][Lys(iPr)]AFL[PyrS2″][3Thi][Bta]L-NH2 (staple 1-4, 4-11) [I-1759]"

# Target: T3, full-length beta-Catenin (Uniprot ID …)
# Assay: fluorescence polarization competition; peptide titrated against 10 nM full-length beta-catenin + 10 nM 5FAM-TCF4(10-53) probe
# Description: The plate was incubated protected from light for 60 minutes at 20° C. prior to read. Reads were performed on a CLARIOstar plate reader (BMG Labtech) in duplicate, and data were fitted to a 1:1 binding model with hill slope using an in-house script. All provided concentrations are final concentrations.
row,IC50,Binder
1,128 nM,"Ac-[αAllylPro]DA[B5(23)]DEAAFT[S8]F[Bta]H-NH2 (staple 1-4, 4-11, Stapled peptide composition) [I-420]"
